Experimental data from article PMC300677.
pKd: −log10 of the molar value.

Target: isolated iron-loaded transferrin C-lobe (Fe-C-lobe)
Assay: biosensor binding assay (SPR), equilibrium analysis

soluble human transferrin receptor 1 (TfR) ectodomain, wild type (from UniProt P02786) D125K
pKd (KD1): 6.00 | ratio to parent (KD1): 1.2 | pKd (KD2): 5.59 | ratio to parent (KD2): 0.8

soluble human transferrin receptor 1 (TfR) ectodomain, wild type (from UniProt P02786) F760A
pKd (KD1): 5.72 | ratio to parent (KD1): 2.4 | pKd (KD2): 5.57 | ratio to parent (KD2): 0.8

soluble human transferrin receptor 1 (TfR) ectodomain, wild type (from UniProt P02786) R651A
ratio to parent (KD1, KD2 relative to wild-type, single entry): > 1000

soluble human transferrin receptor 1 (TfR) ectodomain, wild type (from UniProt P02786) Y123S
pKd (KD1): 6.10 | ratio to parent (KD1): 1 | pKd (KD2): 5.24 | ratio to parent (KD2): 1.7
